Assay results as given in patent US20220054583A1 (ANBITION S R L, published 2022).
Square brackets hold non-standard residues; d marks the D form. Ends that are not written are not given here. * marks the point of attachment. Met(O2) = CS(=O)(=O)CC[C@H](N)C(=O)O; Cha = N[C@@H](CC1CCCCC1)C(=O)O; Bn = c1ccc(C*)cc1

Key:
[1] = target: T1, human recombinant receptor VEGFR-1, seven extracellular domains fused to the Fc domain of human IgG (R&D Systems, cat No 321-FL) (human), P17948; test: competition ELISA, PlGF binding to coated VEGFR-1-Fc
T1 chain: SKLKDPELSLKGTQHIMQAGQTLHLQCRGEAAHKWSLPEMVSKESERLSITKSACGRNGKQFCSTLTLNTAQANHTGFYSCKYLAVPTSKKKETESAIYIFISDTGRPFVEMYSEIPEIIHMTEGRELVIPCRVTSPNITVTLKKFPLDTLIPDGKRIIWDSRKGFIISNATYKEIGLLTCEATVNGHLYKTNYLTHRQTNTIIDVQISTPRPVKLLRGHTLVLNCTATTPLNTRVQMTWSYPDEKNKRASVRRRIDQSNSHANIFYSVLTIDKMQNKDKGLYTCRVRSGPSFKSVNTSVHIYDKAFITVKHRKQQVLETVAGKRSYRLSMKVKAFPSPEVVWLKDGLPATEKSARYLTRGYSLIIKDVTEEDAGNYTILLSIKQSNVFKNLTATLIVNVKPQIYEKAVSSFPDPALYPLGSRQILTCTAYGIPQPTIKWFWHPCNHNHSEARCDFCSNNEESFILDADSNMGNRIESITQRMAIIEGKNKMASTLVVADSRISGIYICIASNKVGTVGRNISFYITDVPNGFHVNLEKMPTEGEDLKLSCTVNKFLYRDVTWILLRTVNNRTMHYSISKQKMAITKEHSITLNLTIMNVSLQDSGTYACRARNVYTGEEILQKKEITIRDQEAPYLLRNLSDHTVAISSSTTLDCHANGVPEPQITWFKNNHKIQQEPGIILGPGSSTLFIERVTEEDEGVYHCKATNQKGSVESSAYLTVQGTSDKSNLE

[2] = target: T1, human recombinant receptor VEGFR-1, …; test: competition ELISA, VEGF-A binding to coated VEGFR-1-Fc
[3] = target: T1, human recombinant receptor VEGFR-1, …; test: competition ELISA, PlGF or VEGF-A binding to coated VEGFR-1-Fc; reference iVR1
[4] = target: T1, human recombinant receptor VEGFR-1, …; test: competition ELISA, residual binding of PlGF (5 ng/ml) to coated VEGFR-1-Fc, peptide 780 nM
[5] = target: T1, human recombinant receptor VEGFR-1, …; test: competition ELISA, residual binding of PlGF (5 ng/ml) to coated VEGFR-1-Fc, peptide 1560 nM
[6] = target: T1, human recombinant receptor VEGFR-1, …; test: competition ELISA, residual binding of PlGF (5 ng/ml) to coated VEGFR-1-Fc, peptide 3125 nM
[7] = target: T1, human recombinant receptor VEGFR-1, …; test: competition ELISA, residual binding of PlGF (5 ng/ml) to coated VEGFR-1-Fc, peptide 6250 nM
[8] = target: T1, human recombinant receptor VEGFR-1, …; test: competition ELISA, residual binding of PlGF (5 ng/ml) to coated VEGFR-1-Fc, peptide 12500 nM
[9] = target: T1, human recombinant receptor VEGFR-1, …; test: competition ELISA, residual binding of PlGF (5 ng/ml) to coated VEGFR-1-Fc, peptide 25000 nM
[10] = target: T1, human recombinant receptor VEGFR-1, …; test: competition ELISA, residual binding of PlGF (5 ng/ml) to coated VEGFR-1-Fc, peptide 50000 nM
[11] = target: T1, human recombinant receptor VEGFR-1, …; test: competition ELISA, residual binding of VEGF-A (5 ng/ml) to coated VEGFR-1-Fc, peptide 780 nM
[12] = target: T1, human recombinant receptor VEGFR-1, …; test: competition ELISA, residual binding of VEGF-A (5 ng/ml) to coated VEGFR-1-Fc, peptide 1560 nM
[13] = target: T1, human recombinant receptor VEGFR-1, …; test: competition ELISA, residual binding of VEGF-A (5 ng/ml) to coated VEGFR-1-Fc, peptide 3125 nM
[14] = target: T1, human recombinant receptor VEGFR-1, …; test: competition ELISA, residual binding of VEGF-A (5 ng/ml) to coated VEGFR-1-Fc, peptide 6250 nM
[15] = target: T1, human recombinant receptor VEGFR-1, …; test: competition ELISA, residual binding of VEGF-A (5 ng/ml) to coated VEGFR-1-Fc, peptide 12500 nM
[16] = target: T1, human recombinant receptor VEGFR-1, …; test: competition ELISA, residual binding of VEGF-A (5 ng/ml) to coated VEGFR-1-Fc, peptide 25000 nM
[17] = target: T1, human recombinant receptor VEGFR-1, …; test: competition ELISA, residual binding of VEGF-A (5 ng/ml) to coated VEGFR-1-Fc, peptide 50000 nM
[18] = target: T2, human recombinant receptor VEGFR-1, seven extracellular domains fused to the Fc domain of human IgG (R&D … (human, UniProt P17948 27-758)); test: competition ELISA, VEGF-A binding to coated VEGFR-1-Fc
T2 construct: Bought reagent; also called Flt-1; not shown: Fc domain of human IgG

B1: iVR1-Cys, tetrameric peptide of formula (IIb) (peptide)
peptide: H-[dE]-Cys(Bn)-[Cha]
chain 1: Lys
chain 2: Lys-[dC]-NH2
modifications: also: branched: four ECX arms on two Z1 Lys, both on Z2 Lys
[1]
  IC50: < 1 µM
[2]
  IC50: 1 µM
[3]
  fold inhibitory capacity against iVR1: 10 fold
[4]
  binding %: 83.8%
[5]
  binding %: 35.5%
[6]
  binding %: 25.5%
[7]
  binding %: 14.1%
[8]
  binding %: 12.6%
[9]
  binding %: 10.3%
[10]
  binding %: 9.18%
[11]
  binding %: 92.3%
[12]
  binding %: 43.7%
[13]
  binding %: 21.7%
[14]
  binding %: 12.5%
[15]
  binding %: 9.81%
[16]
  binding %: 7.99%
[17]
  binding %: 6.5%

B2: tetrameric peptide of formula (II) with Y2 = D-serine (peptide)
peptide: [dE]-Cys(Bn)-[Cha]
chain 1: Lys
chain 2: Lys-[dS]
modifications: also: tetrameric: four tripeptide arms on two Z1 lysines, carried on Z2 lysine
notes: Variant of iVR1-Cys with another Y2; only Y2 is printed
[18]
  IC50: 2.43 µM

B3: tetrameric peptide of formula (II) with Y2 = L-cysteine (peptide)
peptide: [dE]-Cys(Bn)-[Cha]
chain 1: Lys
chain 2: Lys-Cys
modifications: also: tetrameric: four tripeptide arms on two Z1 lysines, carried on Z2 lysine
notes: Variant of iVR1-Cys with another Y2
[18]
  IC50: 2.03 µM

B4: tetrameric peptide of formula (II) with Y2 = L-methionine sulfone (peptide)
peptide: [dE]-Cys(Bn)-[Cha]
chain 1: Lys
chain 2: Lys-[Met(O2)]
modifications: also: tetrameric: four tripeptide arms on two Z1 lysines, carried on Z2 lysine
notes: as for B2
[18]
  IC50: 4.62 µM

B5: iVR1, tetrameric peptide of formula (IIc) (peptide)
peptide: H-[dE]-Cys(Bn)-[Cha]
chain 1: Lys
chain 2: Lys-Gly-NH2
modifications: also: branched: four ECX arms on two Z1 Lys, both on Z2 Lys
[1]
  IC50: 10 µM
[2]
  IC50: 10 µM
[4]
  binding %: 99.4%
[5]
  binding %: 101%
[6]
  binding %: 96.1%
[7]
  binding %: 68.5%
[8]
  binding %: 44.6%
[9]
  binding %: 36%
[10]
  binding %: 26.3%
[11]
  binding %: 98.4%
[12]
  binding %: 96.2%
[13]
  binding %: 93.9%
[14]
  binding %: 66%
[15]
  binding %: 37%
[16]
  binding %: 21.4%
[17]
  binding %: 8.6%
